Results published in patent US9428773B2, “Methods of producing acetoin and 2,3-butanediol using photosynthetic microorganisms” (The Regents of the University of California, priority 2012, dated 2016).

Experiments:
[1] = ADH activity in crude cell lysate of modified S. elongatus strains, oxidation of NAD(P)H with acetoin; type: biochemical; conditions: for ADH enzyme activity in crude cell lysate: expressed in S. elongatus, lysate isolated during production
Method: Enzyme Assays. S. elongatus cells were collected 72 h after induction by centrifugation (4000 g, 5 min, washed in 50 mM potassium phosphate buffer (pH 7.5) and resuspended in the same buffer. Crude extract were prepared with 0.1-mm glass beads and a Mini bead beater (Mini Bead Beater 8 (BioSpec Products, Inc., Bartlesville, Okla.)). The total protein determination was performed by Advanced Protein Assay Reagent from Cytoskeleton, Inc. (Denver, Colo.).
(§1) Alcohol dehydrogenase (ADH) activity was determined by measuring the oxidation of NAD(P)H. The reaction mixture contained 50 mM 3-(N-morpholino) propanesulfonic acid (MOPS) pH 7.0, 25 mM acetoin and 0.2 mM NAD(P)H. The consumption of NAD(P)H was monitored at 340 nm. One specific unit of ADH activity corresponds to the oxidation of 1 nmol of NAD(P)H per minute per mg of protein.
23BD production was detected in three out of four S. elongatus strains (FIG. 4C). […] The strain expressing adh (T. b.) produced 301 mg/L (R,R)-23BD with trace amounts of meso-23BD but also allowed for accumulation of acetoin (FIG. 4C). The strain expressing adh (C. b.) produced 270 mg/L (R,R)-23BD (major) and undetectable levels of acetoin, indicating high flux through the intermediate. The strain expressing adh (C. p.) produced 65 mg L^−1 23BD, with meso-23BD as the primary product and accumulated toxic levels of acetoin. The remaining S-installing adh (L. p.) was not active in S. elongatus, resulting only in accumulation of acetoin. […] Activity for adh (C. p.) was roughly 5-fold higher again than adh (C. b.), however low production and acetoin accumulation was observed, similar to the result in E. coli. […] The two sADH with highest production and lowest acetoin accumulation were further tested with the stronger ALDC gene alsD (A. h.). Both strains increased production, yielding 568 mg L^−1 from adh (T. b.) and 952 mg L^−1 from adh (C. b.), the latter of which is 3 fold higher than production with alsD (E. a.) over 72 hours (FIG. 4C).

[2] = sADH (ADH) activity in crude cell lysate of E. coli production strains, oxidation of NAD(P)H with acetoin; type: biochemical; conditions: expressed in E. coli, excess substrate, NADPH
Method: as §1
The resulting E. coli strains were cultured in modified M9 medium, containing 50 g/L glucose, at 30° C. for 40 h (FIG. 4B). […] The fourth strain, expressing adh (C. b.), maintained a relatively low acetoin concentration (less than 6% of total production) and produced 13.8 g/L total 23BD as a mixture of (R,R)-23BD and meso-23BD stereoisomers forming 74% and 21% of total production respectively (FIG. 4B). The strains expressing adh (T. b.) and adh (C. p.) produced 2.4 g/L and 14.2 g/L 23BD respectively with both isomers formed in roughly equal amounts in each. […] Enzyme activities measured from crude cell lysate isolated during production were high for both sADH (C. p.) and sADH (C. b.), at 265 and 440 nmol min^−1 mg^−1 respectively, when excess substrate was used (FIG. 4B). […] The major 23BD product of each of the adh expressing strains matched the stereochemistry predicted by previous characterization (41-43).

B1: sADH (C. p.): Candida parapsilosis M203011 secondary alcohol dehydrogenase, NADPH, S-installing (SEQ ID NO: 17) (protein, listed as Candida parapsilosis)
chain: MGEIESYCNKELGPLPTKAPTLSKNVLDLFSLKGKVASVTGSSGGIGWAVAEAYAQAGADVAIWYNSHPADEKAEHLQKTYGVHSKAYKCNISDPKSVEETISQQEKDFGTIDVFVANAGVTWTQGPEIDVDNYDSWNKIISVDLNGVYYCSHNIGKIFKKNGKGSLIITSSISGKIVNIPQLQAPYNTAKAACTHLAKSLAIEWAPFARVNTISPGYIDTDITDFASKDMKAKWWQLTPLGREGLTQELVGGYLYLASNASTFTTGSDVVIDGGYTCP
Q: With B1 as the molecule, how does the “fold higher activity than adh (C. b.)” value ([1]; S. elongatus crude cell lysate) read?
A: roughly 5 fold

Q: What about the “sADH enzyme activity in crude cell lysate” value (from here on “sADH enzyme activity”) [2] of the same molecule?
A: 265 nmol/min/mg

B2: sADH (C. b.): Clostridium beijerinckii NRRL B593 secondary alcohol dehydrogenase, NADPH, R-installing (SEQ ID NO: 21) (protein, listed as Clostridium beijerinckii)
chain: MKGFAMLGINKLGWIEKERPVAGSYDAIVRPLAVSPCTSDIHTVFEGALGDRKNMILGHEAVGEVVEVGSEVKDFKPGDRVIVPCTTPDWRSLEVQAGFQQHSNGMLAGWKFSNFKDGVFGEYFHVNDADMNLAILPKDMPLENAVMITDMMTTGFHGAELADIQMGSSVVVIGIGAVGLMGIAGAKLRGAGRIIGVGSRPICVEAAKFYGATDILNYKNGHIVDQVMKLTNGKGVDRVIMAGGGSETLSQAVSMVKPGGIISNINYHGSGDALLIPRVEWGCGMAHKTIKGGLCPGGRLRAEMLRDMVVYNRVDLSKLVTHVYHGFDHIEEALLLMKDKPKDLIKAVVIL
Q: With B2 as the molecule, how does the “fold higher activity than adh (T. b.)” value ([1]; S. elongatus crude cell lysate) read?
A: roughly 10 fold

Q: What about the “ADH enzyme activity in crude cell lysate” value [1] of the same molecule?
A: 56.3 nmol min^−1 mg ^−1

Q: What about the “sADH enzyme activity” value [2] of the same molecule?
A: 440 nmol/min/mg

B3: sADH (T. b.): Thermoanaerobacter brockii HTD4 secondary alcohol dehydrogenase, NADPH, R-installing (SEQ ID NO: 23) (protein, listed as Thermoanaerobacter brockii)
chain: MKGFAMLSIGKVGWIEKEKPAPGPFDAIVRPLAVAPCTSDIHTVFEGAIGERHNMILGHEAVGEVVEVGSEVKDFKPGDRVVVPAITPDWRTSEVQRGYHQHSGGMLAGWKFSNVKDGVFGEFFHVNDADMNLAHLPKEIPLEAAVMIPDMMTTGFHGAELADIELGATVAVLGIGPVGLMAVAGAKLRGAGRIIAVGSRPVCVDAAKYYGATDIVNYKDGPIESQIMNLTEGKGVDAAIIAGGNADIMATAVKIVKPGGTIANVNYFGEGEVLPVPRLEWGCGMAHKTIKGGLCPGGRLRMERLIDLVFYKRVDPSKLVTHVFRGFDNIEKAFMLMKDKPKDLIKPVVILA
Q: Which “ADH enzyme activity in crude cell lysate” value [1] does the source give for B3 here?
A: 6.3 nmol min^−1 mg ^−1

Q: What about the “sADH enzyme activity” value [2] of the same molecule?
A: Relatively low activity

B4: adh (L. p.): Leuconostoc pseudomesenteroides CHCC 2114 secondary alcohol dehydrogenase, NADPH, S-installing (SEQ ID NO: 19) (protein)
chain: MTKKVAMVTGGAQGIGEAIVRRLSADGFAVAVADLNEAKSKEVATDIEKNGGTAIAVKLDVSDREGFFAAVKEVAEKLGGFDVLVNNAGLGPTTPIDTITPELFDKVYHINVAGDIWGIQAAVEQFKKNGNGGKIINATSQAGVVGNPNLSLYSSTKFAVRGLTQVAARDLAEQNITVNAYAPGIVKTPMMFDIAHEVGKNAGKDDEWGMQTFAKDIALKRLSEPEDVAAAVAFLAGPDSNYITGQTIEVDGGMQFH
modifications: Leuconostoc pseudomesenteroides
Q: With B4 as the molecule, how does the “ADH enzyme activity in crude cell lysate” value [1] read?
A: could not be detected
